Measured values taken from patent US20210388087A1 (Chugai, published 2021).
Residue numbers refer to the chain shown, from its start. Each block holds one binder with its values, some of them ahead of it.

Biological target: T1, CD3 epsilon homodimer protein (UniProt P07766 23-126)
T1 construct: also called CD3 (CD3 epsilon)
Assay: SPR, CD3 epsilon homodimer on chip, one-arm antibody as analyte;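 also: surface plasmon resonance at 25 °C with CD3 epsilon homodimer amine-coupled to a CM4 sensor chip, antibody injected as analyte, HBS-EP+ as running buffer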

T1 sequence (P07766 23-126): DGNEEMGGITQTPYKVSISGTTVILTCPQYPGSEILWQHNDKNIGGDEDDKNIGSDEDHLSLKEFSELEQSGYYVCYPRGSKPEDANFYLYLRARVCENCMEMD

KD ratio (KD of CE115HA000/KD of altered form): 2.93
B3: CE115HA000 H35S (antibody, human IgG1, kappa, L234A L235A, N297A, name in Kabat numbering)
heavy: QVQLVESGGGVVQPGRSLRLSCAASGFTFSNAWMSWVRQAPGKGLEWVAQIKAKSNNYATYYAESVKGRFTISRDDSKNSLYLQMNSLKTEDTAVYYCRYVHYGAYYGVDAWGQGTTVTVSSASTKGPSVFPLAPSSKSTSGGTAALGCLVKDYFPEPVTVSWNSGALTSGVHTFPAVLQSSGLYSLSSVVTVPSSSLGTQTYICNVNHKPSNTKVDKKVEPKSCDKTHTCPPCPAPEAAGGPSVFLFPPKPKDTLMISRTPEVTCVVVDVSHEDPEVKFNWYVDGVEVHNAKTKPREEQYASTYRVVSVLTVLHQDWLNGKEYKCKVSNKALPAPIEKTISKAKGQPREPQVYTLPPSRCELTKNQVSLSCAVKGFYPSDIAVEWESNGQPENNYKTTPPVLDSDGSFFLVSKLTVDKSRWQQGNVFSCSVMHEALHNHYTQKSLSLSPDYKDDDDK
chain: EPKSSDKTHTCPPCPAPELLGGPSVFLFPPKPKDTLMISRTPEVTCVVVDVSHEDPEVKFNWYVDGVEVHNAKTKPREEQYNSTYRVVSVLTVLHQDWLNGKEYKCKVSNKALPAPIEKTISKAKGQPREPQVCTLPPSRDELTKNQVSLWCLVKGFYPSDIAVEWESNGQPENNYKTTPPVLDSDGSFFLYSKLTVDKSRWQQGNVFSCSVMHEALHNRYTQKSLSLSP
light: DIVMTQSPLSLPVTPGEPASISCRSSQSLVHSNRNTYLHWYQQKPGQAPRLLIYKVSNRFSGVPDRFSGSGSGTDFTLKISRVEAEDVGVYYCGQGTQVPYTFGQGTKLEIKRTVAAPSVFIFPPSDEQLKSGTASVVCLLNNFYPREAKVQWKVDNALQSGNSQESVTEQDSKDSTYSLSSTLTLSKADYEKHKVYACEVTHQGLSSPVTKSFNRGEC
notes: one-arm antibody

KD ratio (KD of CE115HA000/KD of altered form): 3.14
B5: CE115HA000 H96L (antibody, human IgG1, kappa, L234A L235A, N297A, name in Kabat numbering)
heavy: B3 heavy with S35H, H102L
chain: B3 chain
light: B3 light
notes: one-arm antibody

KD ratio (KD of CE115HA000/KD of altered form): 1.59
B6: CE115HA000 H96R (antibody, human IgG1, kappa, L234A L235A, N297A, name in Kabat numbering)
heavy: B3 heavy with S35H, H102R
chain: B3 chain
light: B3 light
notes: one-arm antibody

KD ratio (KD of CE115HA000/KD of altered form): 15400
B8: CE115HA000 H35R (antibody, human IgG1, kappa, L234A L235A, N297A, name in Kabat numbering)
heavy: B3 heavy with S35R
chain: B3 chain
light: B3 light
notes: one-arm antibody

KD ratio (KD of CE115HA000/KD of altered form): 1.56
B9: CE115HA000 H96K (antibody, human IgG1, kappa, L234A L235A, N297A, name in Kabat numbering)
heavy: B3 heavy with S35H, H102K
chain: B3 chain
light: B3 light
notes: one-arm antibody

KD ratio (KD of CE115HA000/KD of altered form): 28.1
B18: CE115HA000 H35V (antibody, human IgG1, kappa, L234A L235A, N297A, name in Kabat numbering)
heavy: B3 heavy with S35V
chain: B3 chain
light: B3 light
notes: one-arm antibody

KD ratio (KD of CE115HA000/KD of altered form): 1.15
B19: CE115HA000 H96S (antibody, human IgG1, kappa, L234A L235A, N297A, name in Kabat numbering)
heavy: B3 heavy with S35H, H102S
chain: B3 chain
light: B3 light
notes: one-arm antibody

KD ratio (KD of CE115HA000/KD of altered form): 119000
B22: CE115HA000 H35Y (antibody, human IgG1, kappa, L234A L235A, N297A, name in Kabat numbering)
heavy: B3 heavy with S35Y
chain: B3 chain
light: B3 light
notes: one-arm antibody

KD ratio (KD of CE115HA000/KD of altered form): 4.4
B23: CE115HA000 H35T (antibody, human IgG1, kappa, L234A L235A, N297A, name in Kabat numbering)
heavy: B3 heavy with S35T
chain: B3 chain
light: B3 light
notes: one-arm antibody

KD ratio (KD of CE115HA000/KD of altered form): 0.8
B27: CE115HA000 H96G (antibody, human IgG1, kappa, L234A L235A, N297A, name in Kabat numbering)
heavy: B3 heavy with S35H, H102G
chain: B3 chain
light: B3 light
notes: one-arm antibody

KD ratio (KD of CE115HA000/KD of altered form): 50.4
B28: CE115HA000 H35W (antibody, human IgG1, kappa, L234A L235A, N297A, name in Kabat numbering)
heavy: B3 heavy with S35W
chain: B3 chain
light: B3 light
notes: one-arm antibody

KD ratio (KD of CE115HA000/KD of altered form): 1.36
B29: CE115HA000 H96Q (antibody, human IgG1, kappa, L234A L235A, N297A, name in Kabat numbering)
heavy: B3 heavy with S35H, H102Q
chain: B3 chain
light: B3 light
notes: one-arm antibody

KD ratio (KD of CE115HA000/KD of altered form): 87000
B33: CE115HA000 H96P (antibody, human IgG1, kappa, L234A L235A, N297A, name in Kabat numbering)
heavy: B3 heavy with S35H, H102P
chain: B3 chain
light: B3 light
notes: one-arm antibody

The next lines start with the binder.

B1: CE115HA000 G98R (antibody, human IgG1, kappa, L234A L235A, N297A, name in Kabat numbering)
heavy: B3 heavy with S35H, G104R
chain: B3 chain
light: B3 light
notes: one-arm antibody
KD ratio (KD of CE115HA000/KD of altered form): 4.69

B2: CE115HA000 G98T (antibody, human IgG1, kappa, L234A L235A, N297A, name in Kabat numbering)
heavy: B3 heavy with S35H, G104T
chain: B3 chain
light: B3 light
notes: one-arm antibody
KD ratio (KD of CE115HA000/KD of altered form): 0.93

B4: CE115HA000 H35L (antibody, human IgG1, kappa, L234A L235A, N297A, name in Kabat numbering)
heavy: B3 heavy with S35L
chain: B3 chain
light: B3 light
notes: one-arm antibody
KD ratio (KD of CE115HA000/KD of altered form): 4.8

B7: CE115HA000 H35D (antibody, human IgG1, kappa, L234A L235A, N297A, name in Kabat numbering)
heavy: B3 heavy with S35D
chain: B3 chain
light: B3 light
notes: one-arm antibody
KD ratio (KD of CE115HA000/KD of altered form): 69

B10: CE115HA000 H35N (antibody, human IgG1, kappa, L234A L235A, N297A, name in Kabat numbering)
heavy: B3 heavy with S35N
chain: B3 chain
light: B3 light
notes: one-arm antibody
KD ratio (KD of CE115HA000/KD of altered form): 2.88

B11: CE115HA000 H35E (antibody, human IgG1, kappa, L234A L235A, N297A, name in Kabat numbering)
heavy: B3 heavy with S35E
chain: B3 chain
light: B3 light
notes: one-arm antibody
KD ratio (KD of CE115HA000/KD of altered form): 70.3

B12: CE115HA000 G98S (antibody, human IgG1, kappa, L234A L235A, N297A, name in Kabat numbering)
heavy: B3 heavy with S35H, G104S
chain: B3 chain
light: B3 light
notes: one-arm antibody
KD ratio (KD of CE115HA000/KD of altered form): 0.98

B13: CE115HA000 H35F (antibody, human IgG1, kappa, L234A L235A, N297A, name in Kabat numbering)
heavy: B3 heavy with S35F
chain: B3 chain
light: B3 light
notes: one-arm antibody
KD ratio (KD of CE115HA000/KD of altered form): 53.6

B14: CE115HA000 G100bD (antibody, human IgG1, kappa, L234A L235A, N297A, name in Kabat numbering)
heavy: B3 heavy with S35H, G108D
chain: B3 chain
light: B3 light
notes: one-arm antibody
KD ratio (KD of CE115HA000/KD of altered form): 6.25

B15: CE115HA000 H35K (antibody, human IgG1, kappa, L234A L235A, N297A, name in Kabat numbering)
heavy: B3 heavy with S35K
chain: B3 chain
light: B3 light
notes: one-arm antibody
KD ratio (KD of CE115HA000/KD of altered form): 14.4

B16: CE115HA000 H35M (antibody, human IgG1, kappa, L234A L235A, N297A, name in Kabat numbering)
heavy: B3 heavy with S35M
chain: B3 chain
light: B3 light
notes: one-arm antibody
KD ratio (KD of CE115HA000/KD of altered form): 3.98

B17: CE115HA000 G98Y (antibody, human IgG1, kappa, L234A L235A, N297A, name in Kabat numbering)
heavy: B3 heavy with S35H, G104Y
chain: B3 chain
light: B3 light
notes: one-arm antibody
KD ratio (KD of CE115HA000/KD of altered form): 2.75

B20: CE115HA000 G100bL (antibody, human IgG1, kappa, L234A L235A, N297A, name in Kabat numbering)
heavy: B3 heavy with S35H, G108L
chain: B3 chain
light: B3 light
notes: one-arm antibody
KD ratio (KD of CE115HA000/KD of altered form): 5.84

B21: CE115HA000 H35I (antibody, human IgG1, kappa, L234A L235A, N297A, name in Kabat numbering)
heavy: B3 heavy with S35I
chain: B3 chain
light: B3 light
notes: one-arm antibody
KD ratio (KD of CE115HA000/KD of altered form): 7.23

B24: CE115HA000 G100bF (antibody, human IgG1, kappa, L234A L235A, N297A, name in Kabat numbering)
heavy: B3 heavy with S35H, G108F
chain: B3 chain
light: B3 light
notes: one-arm antibody
KD ratio (KD of CE115HA000/KD of altered form): 4.37

B25: CE115HA000 G100bS (antibody, human IgG1, kappa, L234A L235A, N297A, name in Kabat numbering)
heavy: B3 heavy with S35H, G108S
chain: B3 chain
light: B3 light
notes: one-arm antibody
KD ratio (KD of CE115HA000/KD of altered form): 1.25

B26: CE115HA000 H35G (antibody, human IgG1, kappa, L234A L235A, N297A, name in Kabat numbering)
heavy: B3 heavy with S35G
chain: B3 chain
light: B3 light
notes: one-arm antibody
KD ratio (KD of CE115HA000/KD of altered form): 45.8

B30: CE115HA000 H35Q (antibody, human IgG1, kappa, L234A L235A, N297A, name in Kabat numbering)
heavy: B3 heavy with S35Q
chain: B3 chain
light: B3 light
notes: one-arm antibody
KD ratio (KD of CE115HA000/KD of altered form): 4.8

B31: CE115HA000 G100bY (antibody, human IgG1, kappa, L234A L235A, N297A, name in Kabat numbering)
heavy: B3 heavy with S35H, G108Y
chain: B3 chain
light: B3 light
notes: one-arm antibody
KD ratio (KD of CE115HA000/KD of altered form): 51.4

B32: CE115HA000 G100bE (antibody, human IgG1, kappa, L234A L235A, N297A, name in Kabat numbering)
heavy: B3 heavy with S35H, G108E
chain: B3 chain
light: B3 light
notes: one-arm antibody
KD ratio (KD of CE115HA000/KD of altered form): 7.29
